From publication PMC11189300

B1: Mis12 complex full length: MIS12, PMF1, NSL1, DSN1 mutant PMF1:R195E; PMF1:V198L; DSN1:L290F [human] / KNL1 residues 2,026–2,342 [human] (parent)
chain 1: SAQNEREKLQIKIDEMDKILKKIDNCLTEMETETKNLEDEEKNNPVEEWDSEMRAAEKELEQLKTEEEELQRNLLELEVQKEQTLAQIDFMQKQRNRTEELLDQLSLSEWDVVEWSDDQAVFTFVYDTIQLTITFEESVVGFPFLDKRYRKIVDVNFQSLLDEDQAPPSSLLVHKLIFQYVEEKESWKKTCTTQHQLPKMLEEFSLVVHHCRLLGEEIEYLKRWGPNYNLMNIDINNNELRLLFSSSAAFAKFEITLFLSAYYPSVPLPSTIQNHVGNTSQDDIATILSKVPLENNYLKNVVKQIYQDLFQDCHFYH
chain 2: MSVDPMTYEAQFFGFTPQTCMLRIYIAFQDYLFEVMQAVEQVILKKLDGIPDCDISPVQIRKCTEKFLCFMKGHFDNLFSKMEQLFLQLILRIPSNILLPEDKCKETPYSEEDFQHLQKEIEQLQEKYKTELCTKQALLAELEEQKIVQAKLKQTLTFFDELHNVGRDHGTSDFRESLVSLVQNSRKLQNIRDNVEKESKRLKIS
chain 3: MAEASSANLGSGCEEKRHEGSSSESVPPGTTISRVKLLDTMVDTFLQKLVAAGSYQRFTDCYKCFYQLQPAMTQQIYDKFIAQLQTSIREEISDIKEEGNLEAVLNALDKIVEEGKVRKEPAWRPSGIPEKDLHSVMAPYFLQQRDTLRRHVQKQEAENQQLADAVLAGRRQVEELQLQVQAQQQAWQALHREQRELVAVLREPE
chain 4: MAGSPELVVLDPPWDKELAAGTESQALVSATPREDFRVRCTSKRAVTEMLQLCGRFVQKLGDALPEEIREPALRDAQWTFESAVQENISINGQAWQEASDNCFMDSDIKVLEDQFDEIIVDIATKRKQYPRKILECVIKTIKAKQEILKQYHPVVHPLDLKYDPDPAPHMENLKCRGETVAKEISEAMKSLPALIEQGEGFSQVLRMQPVIHLQRIHQEVFSSCHRKPDAKPENFITQIETTPTETASRKTSDMVLKRKQTKDCPQRKWYPLRPKKINLDT
chain 5: MTSVTRSEIIDEKGPVMSKTHDHQLESSLSPVEVFAKTSASLEMNQGVSEERIHLGSSPKKGGNCDLSHQERLQSKSLHLSPQEQSASYQDRRQSWRRASMKETNRRKSLHPIHQGITELSRSISVDLAESKRLGCLLLSSFQFSIQKLEPFLRDTKGFSLESFRAKASSLSEELKHFADGLETDGTLQKCFEDSNGKASDFSLEASVAEMKEYITKFSLERQTWDQLLLHYQQEAKEILSRGSTEAKITEVKVEPMTYLGSSQNEVLNTKPDYQKILQNQSKVFDCMELVMDELQGSVKQLQAFMDESTQCFQKVSVQLGKRSMQQLDPSPARKLLKLQLQNPPAIHGSGSGSCQ

Variants of: B1
Experiment: ITC
Conditions: with KNL1 residues 2,026–2,342 [human]; syringe KNL1^WT; cell Mis12C^M2

screen value | Variant
-14.3 | chain 3 R195E V198L, chain 5 L290F

Same assay, conditions: with KNL1 residues 2,026–2,342 [human]; syringe KNL1^WT; cell Mis12C^M2; parent: -12

dG | Variant
-10.4 | chain 3 R195E V198L, chain 5 L290F

Same assay, conditions: with KNL1 residues 2,026–2,342 [human]; syringe KNL1^WT; cell Mis12C^M1

screen value | Variant
5.83 | chain 3 R195A V198L, chain 5 L290F

Same assay, conditions: with Mis12 complex (Mis12C), syringe KNL1^M2, cell Mis12C^WT

screen value | Variant
-16.1 | chain 1 M231A S247W F250A K252E

Same assay, conditions: with Mis12 complex (Mis12C), syringe KNL1^M2, cell Mis12C^WT, parent: -12

dG | Variant
-9.5 | chain 1 M231A S247W F250A K252E

Same assay, conditions: with Mis12 complex (Mis12C), syringe KNL1^M1, cell Mis12C^WT

screen value | Variant
1.2 | chain 1 M231A S247W F250A K252A

Same assay, conditions: with Mis12 complex (Mis12C), syringe KNL1^M1, cell Mis12C^WT, parent: -12

dG | Variant
-9.35 | chain 1 M231A S247W F250A K252A
